# Test results from US20120058906A1.
# Assays:
# [1] = molecular target: rHuman Notch-1/Fc Chimera, CF (R&D Systems Cat#3647-TK) (human) (UniProt P46531); experiment: ECL (MSD multi-spot), Fab 145 nM; blank 357
# [2] = molecular target: rHuman IGF-1 sR (IGF-1 sR), CF (R&D Systems Cat#391-GR) (human) (UniProt P08069); experiment: ECL (MSD multi-spot), Fab 145 nM; blank 357
# [3] = molecular target: rHuman HGF R/c-MET/Fc Chimera, CF (R&D Systems Cat#358-MT/CF) (human) (UniProt P08581); experiment: ECL (MSD multi-spot), Fab 145 nM; blank 357
# [4] = molecular target: rHuman P-Cadherin/Fc Chimera, CF (R&D Systems Cat#861-PC) (human) (UniProt P22223); experiment: ECL (MSD multi-spot), Fab 145 nM; blank 357
# [5] = molecular target: rHuman Erythropoietin R/Fc Chimera, CF (R&D Systems Cat#963-ER) (human) (UniProt P19235); experiment: ECL (MSD multi-spot), Fab 145 nM; blank 357
# [6] = molecular target: rHuman EGF R/Fc Chimera, CF (R&D Systems Cat#344-ER) (human) (UniProt P00533); experiment: ECL (MSD multi-spot), Fab 145 nM; blank 357
# [7] = molecular target: rHuman Notch-1/Fc Chimera, CF (R&D Systems Cat#3647-TK) (human) (UniProt P46531); experiment: ECL (MSD multi-spot), Fab 9.1 nM; blank 276
# [8] = molecular target: rHuman IGF-1 sR (IGF-1 sR), CF (R&D Systems Cat#391-GR) (human) (UniProt P08069); experiment: ECL (MSD multi-spot), Fab 9.1 nM; blank 276
# [9] = molecular target: rHuman HGF R/c-MET/Fc Chimera, CF (R&D Systems Cat#358-MT/CF) (human) (UniProt P08581); experiment: ECL (MSD multi-spot), Fab 9.1 nM; blank 276
# [10] = molecular target: rHuman ErbB2/Fc Chimera, CF (R&D Systems Cat#1129-ER) (human) (UniProt P04626); experiment: ECL (MSD multi-spot), Fab 9.1 nM; blank 276
# [11] = molecular target: rHuman P-Cadherin/Fc Chimera, CF (R&D Systems Cat#861-PC) (human) (UniProt P22223); experiment: ECL (MSD multi-spot), Fab 9.1 nM; blank 276
# [12] = molecular target: rHuman Erythropoietin R/Fc Chimera, CF (R&D Systems Cat#963-ER) (human) (UniProt P19235); experiment: ECL (MSD multi-spot), Fab 9.1 nM; blank 276
# [13] = molecular target: rHuman EGF R/Fc Chimera, CF (R&D Systems Cat#344-ER) (human) (UniProt P00533); experiment: ECL (MSD multi-spot), Fab 9.1 nM; blank 276
# [14] = molecular target: rHuman Notch-1/Fc Chimera, CF (R&D Systems Cat#3647-TK) (human) (UniProt P46531); experiment: ECL (MSD multi-spot), Fab 580 nM; blank 679
# [15] = molecular target: rHuman IGF-1 sR (IGF-1 sR), CF (R&D Systems Cat#391-GR) (human) (UniProt P08069); experiment: ECL (MSD multi-spot), Fab 580 nM; blank 679
# [16] = molecular target: rHuman HGF R/c-MET/Fc Chimera, CF (R&D Systems Cat#358-MT/CF) (human) (UniProt P08581); experiment: ECL (MSD multi-spot), Fab 580 nM; blank 679
# [17] = molecular target: rHuman ErbB2/Fc Chimera, CF (R&D Systems Cat#1129-ER) (human) (UniProt P04626); experiment: ECL (MSD multi-spot), Fab 580 nM; blank 679
# [18] = molecular target: rHuman P-Cadherin/Fc Chimera, CF (R&D Systems Cat#861-PC) (human) (UniProt P22223); experiment: ECL (MSD multi-spot), Fab 580 nM; blank 679
# [19] = molecular target: rHuman Erythropoietin R/Fc Chimera, CF (R&D Systems Cat#963-ER) (human) (UniProt P19235); experiment: ECL (MSD multi-spot), Fab 580 nM; blank 679
# [20] = molecular target: rHuman EGF R/Fc Chimera, CF (R&D Systems Cat#344-ER) (human) (UniProt P00533); experiment: ECL (MSD multi-spot), Fab 580 nM; blank 679
# [21] = molecular target: rHuman Notch-1/Fc Chimera, CF (R&D Systems Cat#3647-TK) (human) (UniProt P46531); experiment: ECL (MSD multi-spot), Fab 36.3 nM; blank 314
# [22] = molecular target: rHuman IGF-1 sR (IGF-1 sR), CF (R&D Systems Cat#391-GR) (human) (UniProt P08069); experiment: ECL (MSD multi-spot), Fab 36.3 nM; blank 314
# [23] = molecular target: rHuman HGF R/c-MET/Fc Chimera, CF (R&D Systems Cat#358-MT/CF) (human) (UniProt P08581); experiment: ECL (MSD multi-spot), Fab 36.3 nM; blank 314
# [24] = molecular target: rHuman ErbB2/Fc Chimera, CF (R&D Systems Cat#1129-ER) (human) (UniProt P04626); experiment: ECL (MSD multi-spot), Fab 36.3 nM; blank 314
# [25] = molecular target: rHuman P-Cadherin/Fc Chimera, CF (R&D Systems Cat#861-PC) (human) (UniProt P22223); experiment: ECL (MSD multi-spot), Fab 36.3 nM; blank 314
# [26] = molecular target: rHuman Erythropoietin R/Fc Chimera, CF (R&D Systems Cat#963-ER) (human) (UniProt P19235); experiment: ECL (MSD multi-spot), Fab 36.3 nM; blank 314
# [27] = molecular target: rHuman EGF R/Fc Chimera, CF (R&D Systems Cat#344-ER) (human) (UniProt P00533); experiment: ECL (MSD multi-spot), Fab 36.3 nM; blank 314
# [28] = molecular target: rHuman HGF R/c-MET/Fc Chimera, CF (R&D Systems Cat#358-MT/CF) (human) (UniProt P08581); experiment: ECL (MSD multi-spot) screen, antigen spotted on plate, Fab at 0.58 uM; blank spot 403
# [29] = molecular target: rHuman ErbB2/Fc Chimera, CF (R&D Systems Cat#1129-ER) (human) (UniProt P04626); experiment: as above
# [30] = molecular target: rHuman EGF R/Fc Chimera, CF (R&D Systems Cat#344-ER) (human) (UniProt P00533); experiment: as above
# [31] = molecular target: rHuman IGF-1 sR, CF (R&D Systems Cat#391-GR) (human) (UniProt P08069); experiment: as above
# Sequence of rHuman Erythropoietin R/Fc Chimera, CF (R&D Systems Cat#963-ER) (human) (P19235 25-250, change not shown): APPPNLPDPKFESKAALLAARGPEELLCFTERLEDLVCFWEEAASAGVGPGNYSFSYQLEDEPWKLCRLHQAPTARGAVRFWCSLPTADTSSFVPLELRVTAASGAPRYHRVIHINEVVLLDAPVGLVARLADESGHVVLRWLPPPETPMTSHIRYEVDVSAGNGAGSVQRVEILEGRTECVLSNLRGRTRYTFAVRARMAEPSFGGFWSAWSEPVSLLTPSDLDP
substance,measurement,setting,value
Fab VH4-34_IGHD7-27*01_IGHJ4*01 & V1-4_IGLJ4*01,ECL signal,[1],860 ECL signal
same,ECL signal,[2],794 ECL signal
same,ECL signal,[3],1170 ECL signal
same,ECL signal,[4],850 ECL signal
same,ECL signal,[5],845 ECL signal
same,ECL signal,[6],856 ECL signal
same,ECL signal,[7],754 ECL signal
same,ECL signal,[8],788 ECL signal
same,ECL signal,[9],894 ECL signal
same,ECL signal,[10],987 ECL signal
same,ECL signal,[11],589 ECL signal
same,ECL signal,[12],697 ECL signal
same,ECL signal,[13],800 ECL signal
same,ECL signal,[14],1580 ECL signal
same,ECL signal,[15],1360 ECL signal
same,ECL signal,[16],2340 ECL signal
same,ECL signal,[17],1710 ECL signal
same,ECL signal,[18],2240 ECL signal
same,ECL signal,[19],1580 ECL signal
same,ECL signal,[20],1630 ECL signal
same,ECL signal,[21],633 ECL signal
same,ECL signal,[22],799 ECL signal
same,ECL signal,[23],1060 ECL signal
same,ECL signal,[24],1030 ECL signal
same,ECL signal,[25],684 ECL signal
same,ECL signal,[26],722 ECL signal
same,ECL signal,[27],831 ECL signal
same,ECL signal,[28],1710
same,ECL signal,[29],1260
same,ECL signal,[30],1020
same,ECL signal,[31],1200
